According to US20100286372A1 (SCHERING, published 2010):

Experiments:
[1] = target: T1, human PXR-LBD (pregnane X receptor ligand binding domain, residues 130-434) with N-terminal 6x His (human, UniProt O75469 130-434); assay: temperature-dependent circular dichroism (thermal denaturation), shift against apo PXR (Tm 41.5 C)
T1 construct: also called apo PXR; not shown: N-terminal 6x His tag
T1 sequence: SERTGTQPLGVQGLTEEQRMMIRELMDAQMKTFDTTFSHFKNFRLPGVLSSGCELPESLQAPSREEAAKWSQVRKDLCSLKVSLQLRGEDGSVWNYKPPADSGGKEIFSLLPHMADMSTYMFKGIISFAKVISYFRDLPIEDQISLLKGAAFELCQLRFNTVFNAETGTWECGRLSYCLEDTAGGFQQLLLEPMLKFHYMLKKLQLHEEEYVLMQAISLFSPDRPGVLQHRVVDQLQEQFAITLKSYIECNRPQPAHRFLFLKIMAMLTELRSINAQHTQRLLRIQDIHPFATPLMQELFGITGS

[2] = target: T1, human PXR-LBD (pregnane X receptor …); assay: temperature-dependent circular dichroism (thermal denaturation at 220 nm), 2.5 uM PXR, 50 uM peptide
[3] = target: T1, human PXR-LBD (pregnane X receptor …); assay: temperature-dependent circular dichroism (thermal denaturation) of PXR with 50 uM peptide

- Kd [2]: 1340 nM
Binder: CPSSHSSLTERHKILHRLLQEGSPS [SRC-1 peptide (676-CPSSHSSLTERHKILHRLLQEGSPS-700)]
- ΔTm [1]: 4 C
- Tm [3]: 45.5 C
